Test results as given in paper PMC11969024 (2025).

B1: peptide HD2 (from tick evasin EVA4) / CXCL13 (biotinylated, synthetic) (parent complex)
chain 1: EEDDYTAYAPLTCYFT
chain 2: VLEVYYTSLRCRCVQESSVFIPRRFIDRIQILPRGNGCPRKEIIVWKKNKSIVCVDPQAEWIQRMMEVLRKRSSSTLPVPVFKRKIP

Variants of: B1

Row | Variant | enrichment
1 | chain 1 NEDDYTAYAPLTCYFT [chain 1 E1N] | -1.5 log2 (difference from the parental peptide)
2 | chain 1 REDDYTAYAPLTCYFT [chain 1 E1R] | -5.75 log2 (difference from the parental peptide)
3 | chain 1 GEDDYTAYAPLTCYFT [chain 1 E1G] | -1.69 log2 (difference from the parental peptide)
4 | chain 1 WEDDYTAYAPLTCYFT [chain 1 E1W] | -0.426 log2 (difference from the parental peptide)
5 | chain 1 FEDDYTAYAPLTCYFT [chain 1 E1F] | -1.39 log2 (difference from the parental peptide)
6 | chain 1 DEDDYTAYAPLTCYFT [chain 1 E1D] | 2.17 log2 (difference from the parental peptide)
7 | chain 1 MEDDYTAYAPLTCYFT [chain 1 E1M] | -0.674 log2 (difference from the parental peptide)
8 | chain 1 LEDDYTAYAPLTCYFT [chain 1 E1L] | -1.96 log2 (difference from the parental peptide)
9 | chain 1 YEDDYTAYAPLTCYFT [chain 1 E1Y] | 0.38 log2 (difference from the parental peptide)
10 | chain 1 EEDDYTAYAPLTCYFM [chain 1 T16M] | 0.915 log2 (difference from the parental peptide)
11 | chain 1 EEDDYTAYAPLTCYFG [chain 1 T16G] | 2.07 log2 (difference from the parental peptide)
12 | chain 1 EEDDYTAYAPLTCYFF [chain 1 T16F] | -1.23 log2 (difference from the parental peptide)
13 | chain 1 EEDDYTAYAPLTCYFK [chain 1 T16K] | -6.05 log2 (difference from the parental peptide)
14 | chain 1 EEDDYTAYAPLTCYFV [chain 1 T16V] | -0.466 log2 (difference from the parental peptide)
15 | chain 1 EEDDYTAYAPLTCYFW [chain 1 T16W] | -0.0649 log2 (difference from the parental peptide)
16 | chain 1 EEDDYTAYAPLTCYFQ [chain 1 T16Q] | -1.21 log2 (difference from the parental peptide)
17 | chain 1 EEDDYTAYAPLTCYFR [chain 1 T16R] | -7.96 log2 (difference from the parental peptide)
18 | chain 1 EEDDYTAYAPLTCYFH [chain 1 T16H] | 0.0142 log2 (difference from the parental peptide)
19 | chain 1 EEDDYTAYAPLTCYFL [chain 1 T16L] | -0.207 log2 (difference from the parental peptide)
20 | chain 1 EEDDYTAYAPLTCYFE [chain 1 T16E] | 1.77 log2 (difference from the parental peptide)
21 | chain 1 EEDDSTAYAPLTCYFT [chain 1 Y5S] | -3.07 log2 (difference from the parental peptide)
22 | chain 1 EEDDQTAYAPLTCYFT [chain 1 Y5Q] | -3.13 log2 (difference from the parental peptide)
23 | chain 1 EEDDLTAYAPLTCYFT [chain 1 Y5L] | -1.23 log2 (difference from the parental peptide)

Row | Variant | enrichment
24 | chain 1 EEDDNTAYAPLTCYFT [chain 1 Y5N] | -2.57 log2 (difference from the parental peptide)
25 | chain 1 EEDDFTAYAPLTCYFT [chain 1 Y5F] | -0.242 log2 (difference from the parental peptide)
26 | chain 1 EEDDHTAYAPLTCYFT [chain 1 Y5H] | -5.1 log2 (difference from the parental peptide)
27 | chain 1 EEDDETAYAPLTCYFT [chain 1 Y5E] | -0.259 log2 (difference from the parental peptide)
28 | chain 1 EEDDYTAYAPLTCCFT [chain 1 Y14C] | -6.09 log2 (difference from the parental peptide)
29 | chain 1 EEDDYTAYAPLTCYMT [chain 1 F15M] | -4.67 log2 (difference from the parental peptide)
30 | chain 1 EEDDYTAYAPLTCYET [chain 1 F15E] | -7.7 log2 (difference from the parental peptide)
31 | chain 1 EEDDYTAYAPLTCYGT [chain 1 F15G] | -9.13 log2 (difference from the parental peptide)
32 | chain 1 EEDDYTAYAPLTCYWT [chain 1 F15W] | -3.2 log2 (difference from the parental peptide)
33 | chain 1 EEDDYTAYAPLTCYRT [chain 1 F15R] | -6.31 log2 (difference from the parental peptide)
34 | chain 1 EEDDYTAYAPLTCYVT [chain 1 F15V] | -2.57 log2 (difference from the parental peptide)
35 | chain 1 EEDDYTAYAPLTCYPT [chain 1 F15P] | -3.33 log2 (difference from the parental peptide)
36 | chain 1 EEDDYTAYAPLTCYIT [chain 1 F15I] | -5.03 log2 (difference from the parental peptide)
37 | chain 1 EEDDYTAYAPLTCYCT [chain 1 F15C] | -7.62 log2 (difference from the parental peptide)
38 | chain 1 EEDDYTAYAPLTCYLT [chain 1 F15L] | -2.76 log2 (difference from the parental peptide)
39 | chain 1 EEDDYTAYAPLTCYTT [chain 1 F15T] | -5.1 log2 (difference from the parental peptide)
40 | chain 1 EEDDYTAGAPLTCYFT [chain 1 Y8G] | -3.39 log2 (difference from the parental peptide)
41 | chain 1 EEDDYTATAPLTCYFT [chain 1 Y8T] | -4.45 log2 (difference from the parental peptide)
42 | chain 1 EEDDYTAQAPLTCYFT [chain 1 Y8Q] | -5.13 log2 (difference from the parental peptide)
43 | chain 1 EEDDYTANAPLTCYFT [chain 1 Y8N] | -3.32 log2 (difference from the parental peptide)
44 | chain 1 EEDDYTADAPLTCYFT [chain 1 Y8D] | 0.221 log2 (difference from the parental peptide)
45 | chain 1 EEDDYTAMAPLTCYFT [chain 1 Y8M] | -1.68 log2 (difference from the parental peptide)
46 | chain 1 EEDDYTALAPLTCYFT [chain 1 Y8L] | -2.2 log2 (difference from the parental peptide)

Row | Variant | enrichment
47 | chain 1 EEDSYTAYAPLTCYFT [chain 1 D4S] | -5.37 log2 (difference from the parental peptide)
48 | chain 1 EEDQYTAYAPLTCYFT [chain 1 D4Q] | -2.67 log2 (difference from the parental peptide)
49 | chain 1 EEDGYTAYAPLTCYFT [chain 1 D4G] | -5 log2 (difference from the parental peptide)
50 | chain 1 EEDPYTAYAPLTCYFT [chain 1 D4P] | -1.45 log2 (difference from the parental peptide)
51 | chain 1 EEDMYTAYAPLTCYFT [chain 1 D4M] | -5.4 log2 (difference from the parental peptide)
52 | chain 1 EEDLYTAYAPLTCYFT [chain 1 D4L] | -4.8 log2 (difference from the parental peptide)
53 | chain 1 EEDAYTAYAPLTCYFT [chain 1 D4A] | -6.85 log2 (difference from the parental peptide)
54 | chain 1 EEDEYTAYAPLTCYFT [chain 1 D4E] | -0.811 log2 (difference from the parental peptide)
55 | chain 1 EEDIYTAYAPLTCYFT [chain 1 D4I] | -4.76 log2 (difference from the parental peptide)
56 | chain 1 EEDDYTSYAPLTCYFT [chain 1 A7S] | 2.57 log2 (difference from the parental peptide)
57 | chain 1 EEDDYTRYAPLTCYFT [chain 1 A7R] | -1.49 log2 (difference from the parental peptide)
58 | chain 1 EEDDYTTYAPLTCYFT [chain 1 A7T] | 2.08 log2 (difference from the parental peptide)
59 | chain 1 EEDDYTHYAPLTCYFT [chain 1 A7H] | 0.018 log2 (difference from the parental peptide)
60 | chain 1 EEDDYTNYAPLTCYFT [chain 1 A7N] | 2.99 log2 (difference from the parental peptide)
61 | chain 1 EEDDYTDYAPLTCYFT [chain 1 A7D] | 5.88 log2 (difference from the parental peptide)
62 | chain 1 EEDDYTQYAPLTCYFT [chain 1 A7Q] | 3.15 log2 (difference from the parental peptide)
63 | chain 1 EEDDYTEYAPLTCYFT [chain 1 A7E] | 5.25 log2 (difference from the parental peptide)
64 | chain 1 EEDDYTLYAPLTCYFT [chain 1 A7L] | 1.64 log2 (difference from the parental peptide)
65 | chain 1 EEDDYTAYAPNTCYFT [chain 1 L11N] | -7.22 log2 (difference from the parental peptide)
66 | chain 1 EEDDYTAYAPSTCYFT [chain 1 L11S] | -8.97 log2 (difference from the parental peptide)
67 | chain 1 EEDDYTAYAPHTCYFT [chain 1 L11H] | -5.03 log2 (difference from the parental peptide)
68 | chain 1 EEDDYTAYAPATCYFT [chain 1 L11A] | -7.28 log2 (difference from the parental peptide)
69 | chain 1 EEDDYTAYAPLTAYFT [chain 1 C13A] | -7.08 log2 (difference from the parental peptide)

Row | Variant | enrichment
70 | chain 1 EEDDYTAYAPLTSYFT [chain 1 C13S] | -4.26 log2 (difference from the parental peptide)
71 | chain 1 EEDDYTAYAPLTTYFT [chain 1 C13T] | -5.19 log2 (difference from the parental peptide)
72 | chain 1 EEDDYTAYAPLTPYFT [chain 1 C13P] | -7.37 log2 (difference from the parental peptide)
73 | chain 1 EEDDYTAYAPLTNYFT [chain 1 C13N] | -4.98 log2 (difference from the parental peptide)
74 | chain 1 EEDDYTAYAPLTQYFT [chain 1 C13Q] | -8.15 log2 (difference from the parental peptide)
75 | chain 1 EEDDYTAYWPLTCYFT [chain 1 A9W] | 1.81 log2 (difference from the parental peptide)
76 | chain 1 EEDDYTAYGPLTCYFT [chain 1 A9G] | 0.486 log2 (difference from the parental peptide)
77 | chain 1 EEDDYTAYSPLTCYFT [chain 1 A9S] | -1.23 log2 (difference from the parental peptide)
78 | chain 1 EEDDYTAYIPLTCYFT [chain 1 A9I] | -5.77 log2 (difference from the parental peptide)
79 | chain 1 EEDDYTAYMPLTCYFT [chain 1 A9M] | -0.268 log2 (difference from the parental peptide)
80 | chain 1 EESDYTAYAPLTCYFT [chain 1 D3S] | -3.94 log2 (difference from the parental peptide)
81 | chain 1 EENDYTAYAPLTCYFT [chain 1 D3N] | -4.32 log2 (difference from the parental peptide)
82 | chain 1 EEFDYTAYAPLTCYFT [chain 1 D3F] | -4.35 log2 (difference from the parental peptide)
83 | chain 1 EEIDYTAYAPLTCYFT [chain 1 D3I] | -5.63 log2 (difference from the parental peptide)
84 | chain 1 EEEDYTAYAPLTCYFT [chain 1 D3E] | 0.606 log2 (difference from the parental peptide)
85 | chain 1 EEMDYTAYAPLTCYFT [chain 1 D3M] | -5.03 log2 (difference from the parental peptide)
86 | chain 1 EEPDYTAYAPLTCYFT [chain 1 D3P] | -5.29 log2 (difference from the parental peptide)
87 | chain 1 EEDDYKAYAPLTCYFT [chain 1 T6K] | -2.94 log2 (difference from the parental peptide)
88 | chain 1 EEDDYCAYAPLTCYFT [chain 1 T6C] | -9.9 log2 (difference from the parental peptide)
89 | chain 1 EEDDYHAYAPLTCYFT [chain 1 T6H] | 0.439 log2 (difference from the parental peptide)
90 | chain 1 EEDDYGAYAPLTCYFT [chain 1 T6G] | 4.13 log2 (difference from the parental peptide)
91 | chain 1 EEDDYEAYAPLTCYFT [chain 1 T6E] | 4.71 log2 (difference from the parental peptide)
92 | chain 1 EEDDYPAYAPLTCYFT [chain 1 T6P] | -0.391 log2 (difference from the parental peptide)

Row | Variant | enrichment
93 | chain 1 EEDDYAAYAPLTCYFT [chain 1 T6A] | 1.86 log2 (difference from the parental peptide)
94 | chain 1 EEDDYRAYAPLTCYFT [chain 1 T6R] | -1.88 log2 (difference from the parental peptide)
95 | chain 1 EEDDYVAYAPLTCYFT [chain 1 T6V] | -2.98 log2 (difference from the parental peptide)
96 | chain 1 EEDDYQAYAPLTCYFT [chain 1 T6Q] | 1.51 log2 (difference from the parental peptide)
97 | chain 1 EEDDYDAYAPLTCYFT [chain 1 T6D] | 5.14 log2 (difference from the parental peptide)
98 | chain 1 EEDDYNAYAPLTCYFT [chain 1 T6N] | 2.54 log2 (difference from the parental peptide)
99 | chain 1 EVDDYTAYAPLTCYFT [chain 1 E2V] | -1.21 log2 (difference from the parental peptide)
100 | chain 1 EDDDYTAYAPLTCYFT [chain 1 E2D] | 1.8 log2 (difference from the parental peptide)
101 | chain 1 EQDDYTAYAPLTCYFT [chain 1 E2Q] | -2.09 log2 (difference from the parental peptide)
102 | chain 1 EMDDYTAYAPLTCYFT [chain 1 E2M] | -1.37 log2 (difference from the parental peptide)
103 | chain 1 EHDDYTAYAPLTCYFT [chain 1 E2H] | -3.83 log2 (difference from the parental peptide)
104 | chain 1 EEDDYTAYAPLNCYFT [chain 1 T12N] | -4.95 log2 (difference from the parental peptide)
105 | chain 1 EEDDYTAYAPLDCYFT [chain 1 T12D] | -5.43 log2 (difference from the parental peptide)
106 | chain 1 EEDDYTAYAPLLCYFT [chain 1 T12L] | -1.72 log2 (difference from the parental peptide)
107 | chain 1 EEDDYTAYAPLHCYFT [chain 1 T12H] | -5.34 log2 (difference from the parental peptide)
108 | chain 1 EEDDYTAYAPLACYFT [chain 1 T12A] | -5.98 log2 (difference from the parental peptide)
109 | chain 1 EEDDYTAYAGLTCYFT [chain 1 P10G] | 1.04 log2 (difference from the parental peptide)
110 | chain 1 EEDDYTAYASLTCYFT [chain 1 P10S] | -4.38 log2 (difference from the parental peptide)
111 | chain 1 EEDDYTAYAMLTCYFT [chain 1 P10M] | -7.27 log2 (difference from the parental peptide)
112 | chain 1 EEDDYTAYADLTCYFT [chain 1 P10D] | 0.396 log2 (difference from the parental peptide)
